# Test results as given in patent US9127040B2, “Regulation of sodium channels by PLUNC proteins” (The University of North Carolina at Chapel Hill, priority 2011, dated 2015).
# T1: αENaC (Homo sapiens, UniProt P37088)
# T1 sequence (P37088 1-669): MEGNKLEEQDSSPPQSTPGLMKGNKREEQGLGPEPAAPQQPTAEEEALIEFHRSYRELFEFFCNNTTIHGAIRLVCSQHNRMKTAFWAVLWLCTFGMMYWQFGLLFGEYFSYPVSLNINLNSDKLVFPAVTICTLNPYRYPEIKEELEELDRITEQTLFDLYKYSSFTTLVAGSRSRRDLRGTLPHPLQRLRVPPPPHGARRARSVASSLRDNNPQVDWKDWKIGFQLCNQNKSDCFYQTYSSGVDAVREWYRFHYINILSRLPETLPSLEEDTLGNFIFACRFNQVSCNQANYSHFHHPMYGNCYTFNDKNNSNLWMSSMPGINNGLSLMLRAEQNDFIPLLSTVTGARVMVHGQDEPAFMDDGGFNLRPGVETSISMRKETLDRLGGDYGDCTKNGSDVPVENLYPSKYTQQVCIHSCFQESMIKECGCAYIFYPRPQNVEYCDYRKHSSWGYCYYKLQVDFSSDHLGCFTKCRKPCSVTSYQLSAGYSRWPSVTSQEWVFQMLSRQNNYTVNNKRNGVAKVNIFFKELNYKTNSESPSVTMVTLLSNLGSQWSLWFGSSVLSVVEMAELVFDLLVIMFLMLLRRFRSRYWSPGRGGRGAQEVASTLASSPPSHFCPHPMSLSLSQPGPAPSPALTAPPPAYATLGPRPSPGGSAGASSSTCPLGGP
# T2: ENaC (Homo sapiens, UniProt P37088+P51168+P51170)
# T2 construct: measured the transepithelial voltage under thin film conditions in human bronchial epithelial cultures; endogenous in cells; host or cells: primary human bronchial epithelial cultures (normal or CF donors)
# T2 sequence (P37088 1-669): T1 sequence (P37088 1-669)
# T2 sequence (P51168 1-640): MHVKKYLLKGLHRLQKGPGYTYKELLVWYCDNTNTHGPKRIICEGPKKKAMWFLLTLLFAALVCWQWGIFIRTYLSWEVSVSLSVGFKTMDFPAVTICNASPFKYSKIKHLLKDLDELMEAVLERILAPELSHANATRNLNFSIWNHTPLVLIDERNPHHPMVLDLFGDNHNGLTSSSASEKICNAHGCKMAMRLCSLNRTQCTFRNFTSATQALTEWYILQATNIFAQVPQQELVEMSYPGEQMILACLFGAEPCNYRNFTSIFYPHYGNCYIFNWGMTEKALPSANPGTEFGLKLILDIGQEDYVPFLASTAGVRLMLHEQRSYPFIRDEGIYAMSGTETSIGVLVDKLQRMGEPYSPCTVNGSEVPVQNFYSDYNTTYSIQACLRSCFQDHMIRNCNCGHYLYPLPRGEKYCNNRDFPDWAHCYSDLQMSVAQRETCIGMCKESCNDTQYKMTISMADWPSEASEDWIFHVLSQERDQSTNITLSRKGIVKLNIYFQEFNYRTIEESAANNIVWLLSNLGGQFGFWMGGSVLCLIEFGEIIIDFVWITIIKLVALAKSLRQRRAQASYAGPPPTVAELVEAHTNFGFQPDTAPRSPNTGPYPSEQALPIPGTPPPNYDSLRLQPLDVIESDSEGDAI
# T2 sequence (P51170 1-649): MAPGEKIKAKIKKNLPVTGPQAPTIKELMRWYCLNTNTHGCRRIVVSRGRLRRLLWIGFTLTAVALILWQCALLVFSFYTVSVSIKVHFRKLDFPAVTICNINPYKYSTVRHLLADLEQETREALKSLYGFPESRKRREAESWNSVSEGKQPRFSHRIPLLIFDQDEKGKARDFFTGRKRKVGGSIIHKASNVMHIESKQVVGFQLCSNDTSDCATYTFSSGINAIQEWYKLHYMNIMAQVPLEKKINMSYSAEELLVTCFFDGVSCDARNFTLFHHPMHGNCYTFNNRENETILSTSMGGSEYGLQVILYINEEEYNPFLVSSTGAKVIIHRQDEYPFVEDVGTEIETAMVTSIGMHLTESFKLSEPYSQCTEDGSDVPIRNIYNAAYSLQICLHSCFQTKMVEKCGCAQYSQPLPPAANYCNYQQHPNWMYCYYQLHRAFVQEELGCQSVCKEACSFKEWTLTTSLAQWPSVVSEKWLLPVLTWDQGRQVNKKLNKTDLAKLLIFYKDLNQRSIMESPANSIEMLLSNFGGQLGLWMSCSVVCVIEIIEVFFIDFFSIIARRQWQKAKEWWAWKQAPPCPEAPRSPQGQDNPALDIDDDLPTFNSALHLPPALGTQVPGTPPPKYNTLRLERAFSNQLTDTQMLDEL
# B1: SPLUNC1: human SPLUNC1 (SEQ ID NO:1), 256 amino acid secreted PLUNC family protein; rSPLUNC1 is the purified V5/6His-tagged recombinant form (protein, listed as Homo sapiens)
# chain: MFQTGGLIVFYGLLAQTMAQFGGLPVPLDQTLPLNVNPALPLSPTGLAGSLTNALSNGLLSGGLLGILENLPLLDILKPGGGTSGGLLGGLLGKVTSVIPGLNNIIDIKVTDPQLLELGLVQSPDGHRLYVTIPLGIKLQVNTPLVGASLLRLAVKLDITAEILAVRDKQERIHLVLGDCTHSPGSLQISLLDGLGPLPIQGLLDSLTGILNKVLPELVQGNVCPLVNEVLRGLDITLVHDIVNMLIHGLQFVIKV
# modifications: V5/6His tag in recombinant form
# notes: rSPLUNC1 is the purified V5/6His-tagged recombinant form
# Assays:
# αENaC = target: T1, αENaC; assay: Texas red-SPLUNC1 binding assay on JME cells expressing yfp-αENaC; design: expressed in transfected cells; host or cells: JME nasal epithelial cells that no longer express ENaC, lentivirus pQCXIN; conditions: Texas red-rSPLUNC1, 30 min, polarized JME cells with yfp-αENaC; Hill fit
# Description: JME cells were incubated with varying concentrations of Texas red-labeled SPLUNC1 for 30 min followed by a 5× wash with PBS. After this time images were acquired with a Nikon Ti-S inverted microscope and were quantified to obtain specific and non-specific binding using Image J. Data were then fitted with a Hill Plot to obtain the Kd.
# JME nasal epithelial cells express functional ENaCs (Tong et al., Am. J. Physiol. Lung Cell. Mol. Physiol. 287:L928 (2004)). However, this attribute is lost after several passages. Thus, passaged JME cells that no longer expressed ENaC were stably infected with a lentivirus containing yfp-αENaC or an empty vector as a control and the presence or absence of αENaC was confirmed using an antibody that was constructed “in-house” that was directed against αENaC (FIG. 8).
# Recombinant SPLUNC1 was labeled with Texas red according to the manufacturer's instructions (Pierce) and was freshly labeled on the day of each binding experiment. […] After this time yfp (514 nm excitation) and Texas red fluorescence (590 nm excitation) were imaged under a 60× water objective on a Nikon Ti-S inverted microscope equipped with an Orca CCD camera (Hamamatsu) switchable filter wheels (Ludl). Background fluorescence was subtracted from all images and the mean thresholded intensity was quantified to obtain specific and non-specific binding using Image J.
# ENaC = target: T2, ENaC; assay: Transepithelial electrical resistance in human bronchial epithelial cultures; format: cell-based; conditions: 50 ng/ml SPLUNC1 30 min or amiloride 10 min; effects not additive
# From the text: A single-barreled potential difference-sensing electrode was placed in the airway surface liquid by micromanipulator and used in conjunction with a macroelectrode in the serosal solution to measure transepithelial voltage using a voltmeter (World Precision Instruments). […] Transepithelial resistance was routinely measured using the EVOM system (WPI) as previously described ([…] et al., J. Gen. Physiol. 127:591 (2006)).
molecule,measurement,setting,value
B1,Kd,αENaC,0.055 µg/mL
same,increase of transepithelial electrical resistance,ENaC,~33%
